Measurements as given in the supplement of paper PMC12764529.
± gives the half width of the 95% confidence interval.

Columns and labels:
[1] = folding stability dG unfold from trypsin proteolysis; higher = more stable
Procedure, shortened: (§1)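 Digests were run with trypsin and chymotrypsin at 11 concentrations in threefold dilutions, plus a no-protease condition, on designed mini-proteins in a PA-tagged cDNA display construct. The mini-proteins were under 80 residues, had no cysteine, and were kept only when AlphaFold2 dimer inter-PAE was above 15. After sequencing, Bayesian fitting of the counts gave K50, from which unfolding free energy was derived against a sequence-predicted unfolded-state K50 and a shared folded-state K50, per protease or combined.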

[2] = folding stability dG unfold (combined trypsin and chymotrypsin); higher = more stable
Procedure, shortened: as §1

[3] = folding stability dG unfold from chymotrypsin proteolysis; higher = more stable
Procedure, shortened: as §1

Sequence	folding stability dG unfold [1] [kcal/mol]	folding stability dG unfold [2] [kcal/mol]	folding stability dG unfold [3] [kcal/mol]
SAGGSAGGSPPPDVPVDVGERVEYHPPGGVVVREYRTPEGRLIRVEIEELEGGELVRRVVLPLSAGGSAGGS [r12_264_JUSTAS]	1.14 ± 0.095	1.25 ± 0.17	1.33 ± 0.07
SAGGSAGGSPPPIEIRFPNGWEIDKIDPDDAHIILRMPNWIISIEIDPKDGEIDIDIVPNADVSAGGSAGGS [r12_243_TrROS]	1.15 ± 0.1	1.71 ± 0.27	2.09 ± 0.32
SAGGSAGGSPPVKYRITIEMKDPNGKEHTHTIEIPGMNPDDAKEFLEDIPIPPGIKDVEIEPYSAGGSAGGS [r12_886_TrROS]	-0.0813 ± 0.068	-0.148 ± 0.24	-0.55 ± 0.68
SAGGSAGGSPSVPPEWKVEIVEVTVHPDGSTVTAVIRFEDGSTVTVNSPEALARLVEGGNVVNSAGGSAGGS [r12_455_TrMRF]	1.12 ± 0.047	1.51 ± 0.14	1.62 ± 0.11
SAGGSAGGSPSVVTLVSPDYYAEAFYFPDFVLVVLYDPEKGPPQVFLVSNENGELKFFPASEASAGGSAGGS [r12_632_TrMRF]	2.28 ± 0.18	2.85 ± 0.18	3.24 ± 0.059
SAGGSAGGSPWRRIPISSPEQILDWLEEMLPPGFNLTPEMAEQMVDYFLKNFEVDPNGYLWVRSAGGSAGGS [r12_983_TrROS]	2.11 ± 0.051	1.89 ± 0.14	1.82 ± 0.21
SAGGSAGGSRIVIHWDPDGMFMIEIRDPGESRTFMFDGPEEAENFADKIEDKLGLPVEVTEIYSAGGSAGGS [r12_783_TrROS]	0.69 ± 0.024	0.747 ± 0.099	0.681 ± 0.11
SAGGSAGGSRIVRNPDGWYYVRIESPEKGQERYIWIPKGNAEEIADPFGIRNVSIYRPDEPIPSAGGSAGGS [r12_294_TrROS]	0.427 ± 0.15	0.937 ± 0.19	1.28 ± 0.34
SAGGSAGGSRKIPIWIPPGMPPEQLEHFVRFIAGENGWKIKSVEIKDVDPANNWVKIDIEVKWSAGGSAGGS [r12_168_TrROS]	2.16 ± 0.094	2.67 ± 0.11	2.9 ± 0.093
SAGGSAGGSSAEEVAASYPVTEVEYDPVTNTTTVTAEFPDSRIVLTYDPATGTVTTEVLPPLRSAGGSAGGS [r12_214_JUSTAS]	0.508 ± 0.018	0.654 ± 0.17	0.749 ± 0.035
SAGGSAGGSSDEPLVIPVTAVFVNPETGEVTVARAEVRLPPDGGLEVDVEVEVREVEPDAPLLSAGGSAGGS [r12_116_TrMRF]	0.964 ± 0.025	1.2 ± 0.14	1.47 ± 0.036
SAGGSAGGSSEKAEELLERLRELLPPEEIRRVEVRDGKIVIEVSPEAARRLAEELGLDEIEIVSAGGSAGGS [r12_748_TrROS_Hall]	2.53 ± 0.09	2.49 ± 0.074	2.22 ± 0.071
SAGGSAGGSSELKVVELTTEPGKYLVVTLPDGTVVVLPPGAPLPLGDGEPATVEVVPEEELRSSAGGSAGGS [r12_39_JUSTAS]	0.413 ± 0.041	0.705 ± 0.046	0.85 ± 0.022
SAGGSAGGSSFEITVYHPDKGKPFKAKVDIEPELVDGDGKPVLVYKAKITIGDKPFEAVFVLNSAGGSAGGS [r20_39_TrMRF]	2.14 ± 0.08	2.63 ± 0.14	2.89 ± 0.043
SAGGSAGGSSGPTLTIRYSILVSDSDGNWYALVFEARIYPNGDVEIRYRLYSYKDIPPGASPTSAGGSAGGS [r12_38_TrMRF]	4.12 ± 0.16	4.7 ± 0.067	4.85 ± 0.093
SAGGSAGGSSIEEEYAANPENVTVTLPSPGGTPASTITVGNAPVTVTPLPDGDSAVTLDPANKSAGGSAGGS [r12_805_JUSTAS]	0.727 ± 0.045	1.4 ± 0.043	1.69 ± 0.035
SAGGSAGGSSKAEELAKKLGVKVKIIDKFTLPGNKKVILAKVKFPGKGYALVLYDGKTPVLLPSAGGSAGGS [r12_279_TrMRF]	1.97 ± 0.07	1.96 ± 0.087	1.86 ± 0.099
